Laboratory results from US20190062383A1.

Columns and labels:
human Kv1.1 (human) [1] = biological target: human Kv1.1 (human) (UniProt Q09470)
human Kv1.1 (human) [2] = biological target: human Kv1.1 (human) (UniProt Q09470); test: cell-based or functional assay
human Kv1.3 (human) [3] = biological target: human Kv1.3 (human) (UniProt P22001); test: cell-based or functional assay
human Kv1.3 (human) [4] = biological target: human Kv1.3 (human) (UniProt P22001)

human Kv1.1 (human), sequence (Q09470 whole entry): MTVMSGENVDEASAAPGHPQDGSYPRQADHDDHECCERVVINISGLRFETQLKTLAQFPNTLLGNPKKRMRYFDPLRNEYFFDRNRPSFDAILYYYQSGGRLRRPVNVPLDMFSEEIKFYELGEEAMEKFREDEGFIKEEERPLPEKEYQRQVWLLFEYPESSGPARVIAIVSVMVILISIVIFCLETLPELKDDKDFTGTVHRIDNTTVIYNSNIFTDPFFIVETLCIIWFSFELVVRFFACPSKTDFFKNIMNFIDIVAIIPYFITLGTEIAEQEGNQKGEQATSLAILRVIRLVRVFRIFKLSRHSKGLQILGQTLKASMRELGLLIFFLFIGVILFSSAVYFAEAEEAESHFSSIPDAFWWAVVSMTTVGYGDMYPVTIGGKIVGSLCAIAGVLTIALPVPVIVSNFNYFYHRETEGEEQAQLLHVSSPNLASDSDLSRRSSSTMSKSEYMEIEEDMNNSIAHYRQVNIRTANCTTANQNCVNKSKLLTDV
human Kv1.3 (human), sequence (P22001 whole entry): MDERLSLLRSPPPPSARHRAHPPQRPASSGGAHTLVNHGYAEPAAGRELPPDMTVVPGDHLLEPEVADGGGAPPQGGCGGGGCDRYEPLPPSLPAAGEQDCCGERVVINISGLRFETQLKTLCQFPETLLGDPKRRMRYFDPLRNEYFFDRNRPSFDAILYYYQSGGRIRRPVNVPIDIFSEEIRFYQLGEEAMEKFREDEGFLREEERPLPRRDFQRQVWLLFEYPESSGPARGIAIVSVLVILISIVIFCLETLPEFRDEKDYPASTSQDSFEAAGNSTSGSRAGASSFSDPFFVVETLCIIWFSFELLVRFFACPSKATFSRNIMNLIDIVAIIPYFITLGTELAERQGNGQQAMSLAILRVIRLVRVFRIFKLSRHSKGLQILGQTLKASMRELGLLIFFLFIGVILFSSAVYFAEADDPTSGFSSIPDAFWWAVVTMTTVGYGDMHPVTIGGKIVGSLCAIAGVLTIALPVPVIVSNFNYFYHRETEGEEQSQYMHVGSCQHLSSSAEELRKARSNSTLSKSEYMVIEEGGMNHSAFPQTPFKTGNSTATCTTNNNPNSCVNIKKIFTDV

Substance | thallium flux KV1.1 IC50 (human Kv1.1 (human) [1]) | Kv1.1 IC50, whole-cell patch clamp (human Kv1.1 (human) [2]) | Kv1.3 IC50, whole-cell patch clamp (human Kv1.3 (human) [3]) | further results
KV1C2 (OdK2-Fc fusion) | > 1000 nM |  |  | 
wild type OsK1 peptide |  | 0.21 nM | 0.01 nM | CD4+ T cell inhibition IC50 (human Kv1.3 (human) [3]): 0.03 nM; CD8+ T cell inhibition IC50 (human Kv1.3 (human) [3]): 0.03 nM
KV1N2 (OsK1-Fc fusion) | 0.1 nM | 2 nM |  | thallium flux KV1.3 IC50 (human Kv1.3 (human) [4]): 0.03 nM; Kv1.1 IC50, patch clamp (human Kv1.1 (human) [2]): 2 nM; Kv1.3 IC50, patch clamp (human Kv1.3 (human) [3]): 0.3 nM
wild type OdK2 peptide |  |  | 0.1 nM | 
